From paper doi:10.1101/2021.07.21.452842

Target: GST-BRCA1 (tandem BRCT) M1775R (UniProt P38398)
Assay: pull-down

- fold change of binding against BRCA1 (tandem BRCT) WT: 3 to 5 fold
B1: His-GIV-CT (aa 1660-1870) (domain or fragment)
chain: SETLESRHHKIKTGSPGSEVVTLQQFLEESNKLTSVQIKSSSQENLLDEVMKSLSVSSDFLGKDKPVSCGLARSVSGKTPGDFYDRRTTKPEFLRPGPRKTEDTYFISSAGKPTPGTQGKIKLVKESSLSRQSKDSNPYATLPRASSVISTAEGTTRRTSIHDFLTKDSRLPISVDSPPAAADSNTTAASNVDKVQESRNSKSRSREQQSS
